Source: publication PMC10968383 (Bioengineering, 2024)
Changes are numbered by the printed parent chain.

B1: HAb 6b (antibody, V domains shown)
VH: EVQLVQSGAEVKKPGATVKMSCKASGYTFTDYYMKWVKQAPGKGLEWIGDINPNNGDTFYNEKFQGRATLTVDKSTNTAYMELSSLRSEDTAVYYCAKPGRTYWGQGTLVTVS
VL: DIVLTQSPDSLAVSLGERVTMSCKSSQSLLDSGNQKNYLVWYQQKPGQPPKLLIYGASTRESGVPDRFSGSGSGTDFTLTISSVQAEDVAVYYCQNDHSYPLTFGAGTKLELK
B2: HAb 6c (antibody, V domains shown)
VH: B1 VH with M20I, K38Q, I48M, D50L, I51V, A68V, L70I, K98T
VL: B1 VL with V19A, M21I, V84L
B3: 4AA-m (antibody, V domains shown)
VH: EVQLVQSGAEVKKPGDTVKMSCKASGYTFTDYYMKWVKQAPGKAPGKSLEWIGDINPNNGDTFYNQKFQGRATLTVDKSSNTAYMELSSLRSEDTAVYYCVKPGRTYWGQGTLVTVS
VL: B1 VL with S69T
notes: also called recombinant 4AA-m; source: 293F cells, purified with protein A column (said of the antibodies in general)
B4: HAb 6 (antibody, V domains shown)
VH: B1 VH with G44S, E62Q, T76S
VL: B1 VL with S69T
notes: IgG1; also called humanized antibody HAb 6; wild-type antibody; source: 293F cells, purified with protein A column
B5: Clone 6 (antibody, V domains shown)
VH: EVQLQQSGPELVKPGASVKMSCKASGYTFTDYYMKWVKQSHGKSLEWIGDINPNNGDTFYNQKFKGKATLTVDKSSNTAYMQLNSLTSEDSAVYYCAKPGRTYWGQGTLVTVS
VL: B1 VL with D9S, A12S, L15A, R18K, S69T, A86P, V89L
notes: also called murine anti-PrPc antibody Clone 6; full-length Clone 6 antibody; source: 293F cells, purified with protein A column
B6: 4AA (antibody, V domains shown)
VH: B3 VH
VL: B1 VL with S69T
notes: IgG1

Tests used:
[1] = biological target: T1, full-length PrPc displayed on 293T cells (293T-PrPc) (Homo sapiens (Human)., UniProt P04156)
[2] = biological target: T1, full-length PrPc displayed on 293T …; assay: Western blotting; settings: one partner purified
PrPc-35aa = PrPc-35aa (Homo sapiens (Human).); assay: BLI; settings: both partners purified

Binder	binding result [1]	Kd (PrPc-35aa) [nM]	further results
B1	binds	–	–
B2	binds	–	–
B3	–	–	Western blot signal on the 5 μg lysate, fold of that with 3F4 [2]: 3 fold; Western blot signal on the 5 μg lysate, fold of that with 8H4 [2]: 9 fold
B4	–	2.92	–
B5	–	0.314	–
B6	–	0.281	–
